In the DeepSol protein solubility set:

Experiment: soluble on expression in E. coli; label from the status in PepcDB or PDB records

**Q.** With “MAARHAVRGGTVYGGGNGYRVNLVGRGTGGSTMVHHQPLNRISSQRSVAPVGRVLNRGALRNGAQQPLHVSTSSPAFHYMEEQPSPTTNGMVIQAKTPGAGVIQARHMQSQQSFPSGGPARVLMNRSSTNAGLSRMVGGGYDQQLPTAPNGRLMIPSTAVRVPGSGMASPRLQTTPQPLTKSQKAKDEMKMAYQVGREEALQQRRNDLEDDEENLGYAETYSEYTPAKLRSGMAHPDSVVESASLSSVSPPDVKYQISIPEYLIDMGHISALQLEAVIYACQMHERRMPSGERYGYLIGDGAGVGKGRTVACIIFENYLQGRKRAIWLSVSSDLKFDAERDLRDCGAPNIPVYALNKMKYAKISGKENGSIKKGVMFATYTSLIGECRGAKSRKYRSRISQLIQWFGQDYDGVIILDECHRAKNLVPTAGAKPTKTGRMVLELQKALPNARVVYASATGATEPRNMAYMTRLGLWGERQAFPEFHDFISAVERRGVGAMEIVAMDMKQRGLYLARQLSFRGVSFAVQEVQLSSEFVKMYDAAVKLWMEARRQFQTVIETMDEEERSTCKTVWGQFWACHQRFFKYLCIAAKVDTCVQLSREAIKAKKCVVIGLQSTGESATLETLEEMGGELNEFVSTAKTVLYGLIDKHFPTDASFSMGDRDIFKDFDDFERPAKRRKTRETLSFLGDVGFDTWTGVTTGMGGRVGDGVTKNITRGLSGIGRSSMSSSTGNTNNEDANSTTSESSDGSDDEVENDMISENGGESGDLESAREEAEGARTLEDGEQDEWVKALLAEAESSSDDSDEEVVKDEDEDEEAESKSGETHEQEEEFNPFMCDFTNDDPWAHNQQIVEDTPQKDRKAKKRKRDEEEAERLREKVRKREERREKKRRRAIRRAEREKQRRNEELQARGSATDFITSSRICGNGSGEQDDINPMLIKTELLAAVERLAPSLPANTLDQLIDEMGGPEYVAEMTGRRGHMVTSETGDVMYQRRNANAEVSLELINMEEKEKFMRGEKLIAIISEAASSGISLQSDRRAINKRRRVHITLELPWSADKAIQQFGRTHRSNQVSGPEYVFLISELAGEKRFASIVAKRLESLGALTHGDRRATETRDLSQFNMDNKYGRVALDTLLKTVIGQAGTPLIDPPKDYKAGEFFEDMRLYMEGVGLLAKNKTGQYTIEKEAATIPKFLNRILGLPVHAQNSLFHYFSEIVAELIAQSKHDGTYDTGIMDLGTGDDQVRKLETRVFTGRVDNGSFRVEIHKIGVERGVSWEEAMELHKEHSNDDDGFYICHPGGANTANTKKVAALVYGIGKIRMDNGARLYAITRPSTGRSPKLMTMADLSKRFHKVSIDEAKEVWKQQYDSAANMCQHNYVYGKCRTESNGTYCEVGRRTRTYFVLSGSVLSVWPIVEEVLAGSDRKSSRMQVIRVRTEQDQKIVGKLVVFFGK” as the sequence, how does the “soluble on expression in E. coli” value read?
**A.** Its value is “not soluble”.

**Q.** With “MVARSPKGCQEKPVASGKSGIMPSSGRGFRALAPRTLAPFQGAFGGGPSSPGGPHEGGPTPWPTRWRSGSSASGARAGVTPRTLRRIFLEEVERELGPEKARLLAKQTLPFEEIFVVEGRKQRPFSKGLLTRSLEDAGFSLREAHELAKAVERRLRLEGVRRIPAKRLEKVVAEEARRLYGPEAGERYRARLLYAGELFVEEAPGAPRVPFSKGILAQSLMAIGLSPDRAFRLAREMEVALHREGVQVIRRDELRRRVHQALLREAGEEMARRYLILRSLRKQPRPVHILIGGVTGVGKSVLASALAYRLGITHIVPSDAVREVFRVSLSKDLLPTLHLSTFEAWRALSPGLGLEGESYEVQVMRGFLDQVAKVAVGLKAIQERSALEGTSIVLEGVHVVPRFLQHPYQDRVFTIPMLVAVQDENLHRDRFLLRDRETGHARPKERYLQHFEEIRLIQNHLLRWAREEGIPVIPGEDLDEGIEKALEVLVAYLEAQGQRLEEAHA” as the sequence, how does the “soluble on expression in E. coli” value read?
**A.** Its value is “soluble”.

**Q.** For “MDESFDSSVVPGSLTSDDRAIFNEQTLKNGDENSKSSLEVMANCVYLANSTILRERKVIPAEYFQDFQVYGDVSGYTLRQDIPEGRSVSSKLLASHDAIRQKLLQKLAIVVEESLNTNPVETFVWTFVYDSTTSASAEIGYGGRKSKFVVNYLNMDDTAQQFCKMFSELRNVLSLLRPLPRGLIPSMKVAYRGEPEFVPGFQQVDDFVNPEQINLGAVSFPHGNGFQFAYASKFMVEQPSAIRPPVEVSHFEDDLLNSTITPIEVVRDNTMNCAENPELDEIYFSPGRQEVRMDEDVANESIRCNPSMASEMMVLQSEYNVLIADNDEVPMVVERERSPIVKAAKKRSTRAPAVPITPTEPASPVESPVKEQPQKAPKAQMRRSSKRTTKNNERCEQKEEEPIVNPKRRSARRLVPPVEVDEQPEEQNDDDAQNSLQIDSDAQNSLQIDSDAIITSPEKRNESKSAIPEEAADLDNTTSEKQESSTARYGVSNTSINRKKPDPVANPVSEEAQVDLANGSIPDKRPRKRKYGRVSSILDVADLPTDDTVEEDVRESPIYGRVPSILDVARAEENDAQNDAQDAQNEIAVEGLADLSIDTEQHEEAAPINVTGHQSESVPIIVTEHQSEEAQTVVTEQPAGAASVIAAERHYGRVSSILDVAGSFADVDPSGAAPAIATERHYGRVSSILDVAGSLSDVDPQEDTESSTQNQSTSKKFKPNPPKAMRYGQSPNMPSRRGN”, which “soluble on expression in E. coli” value is on record?
**A.** The value was “not soluble”.

**Q.** For “GSENIYTTLKFESMMQQRVIQIRSIPEEEYHELVSVQFKTDGGKYEKGEKQDLELSEKKTENGKDTESWGWNENQDSDEHDGWDEELDIDVDNVPIQVSVFVQSAAKVFTEFEQGCDTIGRSKVESIYLYKFNLLQTAFFAMVSEKVNDWTQLYKDVRYLYTENPKLLQLMELNSRRLDLNLNLIKKTIYKLVNDQLQELKDNERTPDWDITISSLLPYLKKTALPTLYKLEDNTILVALIRYIVHDLVIDNILHWRVISEKSSENLSEFIMLLLSGLEIPRLNLIETYRHSREKLGILSKILTAHLKDILEMFYEGEFFLFETDEIVQWIILLFADTPTRRDCIDEIRRVREEATD”, which “soluble on expression in E. coli” value is on record?
**A.** Its value is “soluble”.

**Q.** Which “soluble on expression in E. coli” value does the source give for “GPGSMSLWGGFSNPTSYSDSGLEKRLEFDFAAAVDVQTFAVEELEDVLAAAGQKLQHHFSAEGLLSLEMTQCIIILTPCKLVVTSASEVMLHQVITPTIALLTSKGVRVEWASYLRKNTTSPWCAESEMSDIMAQEYAELKAAFPAGKSFLTGPVDGHHCFNFVYDNVERIAGRKEEDVQVNVFLNDVAAGLEEVNKTTQRFHALQSGEYEVMRTFAGVPCISFETNAKAAVASPTRVQKLLDTFQPTHFTVAALQDRDADESALRCNFNAFTPYTLQNRTVNLFGEGYAFHQLLFARSAD” here?
**A.** Its value is “soluble”.

**Q.** Which “soluble on expression in E. coli” value does the source give for “MGSDKIHHHHHHMSSKAEKDIKWGIAPIGWRNDDIPSIGKDNNLQQLLSDIVVAGFQGTEVGGFFPGPEKLNYELKLRNLEIAGQWFSSYIIRDGIEKASEAFEKHCQYLKAINAPVAVVSEQTYTIQRSDTANIFKDKPYFTDKEWDEVCKGLNHYGEIAAKYGLKVAYHHHMGTGIQTKEETDRLMANTDPKLVGLLYDTGHIAVSDGDYMALLNAHIDRVVHVHFKDVRRSKEEECRAKGLTFQGSFLNGMFTVPGDGDLDFKPVYDKLIANNYKGWIVVEAEQDPSKANPLEMAQIAHRYIKQHLIEN” here?
**A.** Its value is “not soluble”.

**Q.** With “MGSDKIHHHHHHMLSSAEKVKGQGVASAYRELVNLLEERYKNEIDMKINSFEKSDITHYHTVDFRFFLSTFFKKKRGVRVGYVHFLPETMEGSLKLPWIARVVFYKYLIGFYKRMDEIVVVNPSFIPKLTAYNIPAEKIHYIPNFVSKKSFFPISKGEKELARAKYEIPADKFTVIGIGQVQHRKGVLDFIEVAKQLPDVQFVWAGGFSFGKITSGYEELKKIYDNPPSNVKFIGIVDRSEMNSCINMADVFFMPSYNELFPMAILEAMSCDVPILLRNLDLYEEILDGYYVKEVDNPGFIRAIERLENDTNYYNEMLQASKRGAAYYSEDRLAEIWLDFYQGLLTKE” as the sequence, how does the “soluble on expression in E. coli” value read?
**A.** Its value is “not soluble”.

**Q.** Which “soluble on expression in E. coli” value does the source give for “MASIAYGNNNYVIVKRDGKILTSSDGHEWKEKYFLQGGSFTSVTYNGNMFVAAGAYTVALPYGGPLTYGKCVIMTSPDGNNWQLQDAGYNADLKGITWSGKKFAVAGTNIILSSENGITWNAVEVNAILHDIAFGNGIFAAVGYDGVIMSSVDGEHWETKVEALRYDLTNIVWYDNKFIAIGSGSTPSIVVSGDGKTRVARGPKDASYKCDSSLHNVEWRKTGCSRLRQYYSDRRAKGYS” here?
**A.** The value was “soluble”.

**Q.** With “MKFAFIAKHRSIWPVAWLCEALGVSRSGFHAWFNRSPSEHARHDEVLLERIKQSFQSSDRTYGARRVWHDVLEEGLSCGLHRIERLMRLNALRARPRRRGFPKDAGDRPVVMPNVLDRQFVADRPNQKWVADFTYIWTAEGWLYVAAVIDLFSRRVVGWSMNANMTAQLVTDALIMAIWRRGKPDALLHHSDQGSQYTSEQFQRLMGDHGITCSMSRSGNVWDNAAMESFFSSLKTERTARKVYRTRNDARADVFDYIERFYNPKRRHSTLGYLSPDDFETKVGLA” as the sequence, how does the “soluble on expression in E. coli” value read?
**A.** The value was “soluble”.

**Q.** With “MGSDKIHHHHHHMEISFTRVALLAAALFFVGCDQKPQPAKTHATEVTVLEGKTMGTFWRASIPGIDAKRSAELKEKIQTQLDADDQLLSTYKKDSALMRFNDSQSLSPWPVSEAMADIVTTSLRIGAKTDGAMDITVGPLVNLWGFGPEQQPVQIPSQEQIDAMKAKTGLQHLTVINQSHQQYLQKDLPDLYVDLSTVGEGYAADHLARLMEQEGISRYLVSVGGALNSRGMNGEGLPWRVAIQKPTDKENAVQAVVDINGHGISTSGSYRNYYELDGKRLSHVIDPQTGRPIEHNLVSVTVIAPTALEADAWDTGLMVLGPEKAKEVVRREGLAVYMITKEGDSFKTWMSPQFKSFLVSEKN” as the sequence, how does the “soluble on expression in E. coli” value read?
**A.** Its value is “not soluble”.

**Q.** With “MGSDKIHHHHHHMLSKMEINKLAMKESMTLLACPICGGEFSFSEPNSFICKNHHGFDIAKPGYLHLLKQVHKTKYDQALFESRKKVIASGFFEKLIERVTEIIAETKKEEVVIYDAGSGEGSHLARVVKNLQEKGRHVQAIGLDIAKEGVKQAARDYPGIVWTVADLANCPTQTETADVILNILSPSNYEEFKRLLKTDGFLLKVVPEANYLRELREFIYVDEKSSYSNESVTSRLAEKLTVEYVERVTYKAPIANELFADFLEMTPLGWHIDKDKKSELLINPPKELTVDLKIIIANRAHLL” as the sequence, how does the “soluble on expression in E. coli” value read?
**A.** Its value is “not soluble”.

**Q.** With “MIKGSCLCGDIRYTTEAAPQGASMCHCGQCRRQSGGVWSSAFVPEADLTITGPVSWFAASDTAKRGFCARCGSFLFWKANDEDTISFSLGSVDGPTGLRLTKHIFVAGKGDYYDIADDAPHKD” as the sequence, how does the “soluble on expression in E. coli” value read?
**A.** The value was “not soluble”.

**Q.** With “IGAWGYNVGFNLYDSKTVVTKYHNESKIILKSDGTNNYYEGYEIGSIWGYVTDGYYTADDFEDTNTWKLKEGVVTVDGVSPRPGDIKYQNLRDDGSSTNRIDTGDGTFDNPGDRKIIGNNSLRLQYGINLGVNYKGFDLSVLLQGVGKRDVWISDARRWPFNSGQFGSLFKDQLDYWKPVDSANGDWTAANPNAEYFRIYGQGNNSSYNTRAQTKYLMNGSYLRVKNVTLSYNFPKSWLAPITLTSLKAFVSCENLHTFTKLMKGYDPERLSWGYPFYRTISFGFNVTL” as the sequence, how does the “soluble on expression in E. coli” value read?
**A.** Its value is “not soluble”.

**Q.** For “MSAIKVFILSDSIGETAHNVALAAAAQFSDYDIRYQRFPFVRTDSLLQTVLSQALKEHAAIFHTFVDRRLSQIVNQFCEAHELPYYDVITPALDTFSQITHVQPSNHPGTVHALNTNYFDRINAIEFAVTYDDGKNPSGFLEADVVLLGVSRTSKTPLSLYLANRNLKVANLPLVPQAQIPDEIWKVDPKKIFGLTNDPEKLNDIRRQRMVQYGLNPDTMYSNTDKIKAELEYADKIFKKIGCLVINVANKSIEETATLITESLNTDDTNNGLEHHHHHH”, which “soluble on expression in E. coli” value is on record?
**A.** The value was “soluble”.

**Q.** For “MRPRYRASGPSSSPDRTSSQPGSRSMIQCKRVYEPASPADGRRVLVDRLWPRGIRKEALAMDDWLKEVAPSNEVRKQFCHDPALFDSFREHYRAELQAHPEHWWGLLDSAREGTLTLLYGAHDQQHNNAVVLAEFLEEELDRQQPGSSPTCYADRLS”, which “soluble on expression in E. coli” value is on record?
**A.** Its value is “not soluble”.
